What was measured:
Experiment in all cases: cell-based or functional assay
[1] = target: HIV-1 Env of Q168.a2 (HIV-1)
[2] = target: HIV-1 Env of TH976.17 (HIV-1)
[3] = target: HIV-1 Env of 6535.3 (HIV-1)
[4] = target: HIV-1 Env of 96ZM651.02 (HIV-1)
[5] = target: HIV-1 Env of MB539.2B7 (HIV-1)
[6] = target: HIV-1 Env of TRJO.58 (HIV-1)
[7] = target: HIV-1 Env of MB201 (HIV-1)
[8] = target: HIV-1 Env of TRO.11 (HIV-1)
[9] = target: HIV-1 Env of C1080.c3 (HIV-1)
[10] = target: HIV-1 Env of CNE3 (HIV-1)
[11] = target: HIV-1 Env of ZM135.10a (HIV-1)
[12] = target: HIV-1 Env of THRO.18 (HIV-1)
[13] = target: HIV-1 Env of ZM214.15 (HIV-1)
[14] = target: HIV-1 Env of 6405.v4.c34 (HIV-1)
[15] = target: HIV-1 Env of RW020.2 (HIV-1)
[16] = target: HIV-1 Env of 3016.V5.c36 (HIV-1)
[17] = target: HIV-1 Env of REJO.67 (HIV-1)
[18] = target: HIV-1 Env of ZM53.12 (HIV-1)
[19] = target: HIV-1 Env of QH0692.42 (HIV-1)
[20] = target: HIV-1 Env of RHPA.7 (HIV-1)
[21] = target: HIV-1 Env of CAP256.PI (HIV-1)
[22] = target: HIV-1 Env of AC10.29 (HIV-1)
[23] = target: HIV-1 Env of DU172.17 (HIV-1)
[24] = target: HIV-1 Env of Q259.d2.17 (HIV-1)
[25] = target: HIV-1 Env of Q461.e2 (HIV-1)
[26] = target: HIV-1 Env of BG505.w6m (HIV-1)
[27] = target: HIV-1 Env of DU156.12 (HIV-1)
[28] = target: HIV-1 Env of 0260.v5.c36 (HIV-1)
[29] = target: HIV-1 Env of ZM109.4 (HIV-1)
[30] = target: HIV-1 Env of UG037.8 (HIV-1)
[31] = target: HIV-1 Env of SC422.8 (HIV-1)
[32] = target: HIV-1 Env of CM244.ec1 (HIV-1)
[33] = target: HIV-1 Env of ZM197.7 (HIV-1)
[34] = target: HIV-1 Env of KER2008.12 (HIV-1)
[35] = target: HIV-1 Env of CAP210.E8 (HIV-1)
[36] = target: HIV-1 Env of ZM233.6 (HIV-1)
[37] = target: HIV-1 Env of WITO.33 (HIV-1)
[38] = target: HIV-1 Env of CAP45.G3 (HIV-1)
[39] = target: HIV-1 Env of Q842.d12 (HIV-1)
[40] = target: HIV-1 Env of CAAN.A2 (HIV-1)
[41] = target: HIV-1 Env of Q769.d22 (HIV-1)
[42] = target: HIV-1 Env of PVO.04 (HIV-1)
[43] = target: HIV-1 Env of Q23.17 (HIV-1)
[44] = target: HIV-1 Env of CAP244.D3 (HIV-1)
[45] = target: HIV-1 Env of KER2018.11 (HIV-1)
[46] = target: HIV-1 Env of DU422.01 (HIV-1)
[47] = target: HIV-1 Env of ZM249.1 (HIV-1)
[48] = target: HIV-1 Env of CAP256.SU (HIV-1)

B1: CAP256-VRC26.27 (antibody, V domains shown)
VH: QKQLVESGGGVVQPGRSLTLSCAASQFPFSHYGMHWVRQAPGKGLEWVASITNDGTKKYHGESVWDRFRISRDNSKNTLFLQMNSLRAEDTALYFCVRDQREDECEEWWSDYYDFGKELPCRKFRGLGLAGIFDIWGHGTMVIVSS
VL: QSVLTQPPSVSAAPGQKVSISCSGNNSNIGNNFISWFQQFPGTAPKPLIYETYRRHSGIPDRFSGSKSGTSATLAITGLQTGDEADYYCATWGVRQGVGALFGTGTKVTVLG
Q: For B1, which “IC50 (neutralization, TZM-bl)” value [1] is on record?
A: 0.003 µg/mL

Q: What about the “IC50 (neutralization, TZM-bl)” value [2] of the same binder?
A: > 50 µg/mL

Q: And the “IC50 (neutralization, TZM-bl)” value [3]?
A: > 50 µg/mL

Q: And the “IC50 (neutralization, TZM-bl)” value [4]?
A: 0.047 µg/mL

Q: And the “IC50 (neutralization, TZM-bl)” value [5]?
A: 1.15 µg/mL

Q: What about the “IC50 (neutralization, TZM-bl)” value [6] of the same binder?
A: > 50 µg/mL

Q: And the “IC50 (neutralization, TZM-bl)” value [7]?
A: > 50 µg/mL

Q: What about the “IC50 (neutralization, TZM-bl)” value [8] of the same binder?
A: > 50 µg/mL

Q: And the “IC50 (neutralization, TZM-bl)” value [9]?
A: 0.149 µg/mL

Q: And the “IC50 (neutralization, TZM-bl)” value [10]?
A: > 50 µg/mL

Q: What about the “IC50 (neutralization, TZM-bl)” value [11] of the same binder?
A: > 50 µg/mL

Q: And the “IC50 (neutralization, TZM-bl)” value [12]?
A: 1.23 µg/mL

Q: And the “IC50 (neutralization, TZM-bl)” value [13]?
A: 3.86 µg/mL

Q: And the “IC50 (neutralization, TZM-bl)” value [14]?
A: > 50 µg/mL

Q: What about the “IC50 (neutralization, TZM-bl)” value [15] of the same binder?
A: > 50 µg/mL

Q: And the “IC50 (neutralization, TZM-bl)” value [16]?
A: 0.006 µg/mL

Q: What about the “IC50 (neutralization, TZM-bl)” value [17] of the same binder?
A: > 50 µg/mL

Q: What about the “IC50 (neutralization, TZM-bl)” value [18] of the same binder?
A: < 0.0006 µg/mL

Q: What about the “IC50 (neutralization, TZM-bl)” value [19] of the same binder?
A: > 50 µg/mL

Q: What about the “IC50 (neutralization, TZM-bl)” value [20] of the same binder?
A: > 50 µg/mL

Q: What about the “IC50 (neutralization, TZM-bl)” value [21] of the same binder?
A: > 50 µg/mL

Q: What about the “IC50 (neutralization, TZM-bl)” value [22] of the same binder?
A: > 50 µg/mL

Q: What about the “IC50 (neutralization, TZM-bl)” value [23] of the same binder?
A: 4.36 µg/mL

Q: And the “IC50 (neutralization, TZM-bl)” value [24]?
A: 0.005 µg/mL

Q: And the “IC50 (neutralization, TZM-bl)” value [25]?
A: 0.014 µg/mL

Q: And the “IC50 (neutralization, TZM-bl)” value [26]?
A: 0.102 µg/mL

Q: What about the “IC50 (neutralization, TZM-bl)” value [27] of the same binder?
A: 0.006 µg/mL

Q: What about the “IC50 (neutralization, TZM-bl)” value [28] of the same binder?
A: 2.1 µg/mL

Q: And the “IC50 (neutralization, TZM-bl)” value [29]?
A: 0.027 µg/mL

Q: What about the “IC50 (neutralization, TZM-bl)” value [30] of the same binder?
A: > 50 µg/mL

Q: And the “IC50 (neutralization, TZM-bl)” value [31]?
A: 4.86 µg/mL

Q: And the “IC50 (neutralization, TZM-bl)” value [32]?
A: 0.056 µg/mL

Q: What about the “IC50 (neutralization, TZM-bl)” value [33] of the same binder?
A: 0.004 µg/mL

Q: What about the “IC50 (neutralization, TZM-bl)” value [34] of the same binder?
A: 11.3 µg/mL

Q: And the “IC50 (neutralization, TZM-bl)” value [35]?
A: 0.002 µg/mL

Q: What about the “IC50 (neutralization, TZM-bl)” value [36] of the same binder?
A: < 0.0006 µg/mL

Q: And the “IC50 (neutralization, TZM-bl)” value [37]?
A: > 50 µg/mL

Q: And the “IC50 (neutralization, TZM-bl)” value [38]?
A: 0.025 µg/mL

Q: What about the “IC50 (neutralization, TZM-bl)” value [39] of the same binder?
A: 10.6 µg/mL

Q: What about the “IC50 (neutralization, TZM-bl)” value [40] of the same binder?
A: > 50 µg/mL

Q: What about the “IC50 (neutralization, TZM-bl)” value [41] of the same binder?
A: > 50 µg/mL

Q: And the “IC50 (neutralization, TZM-bl)” value [42]?
A: 0.371 µg/mL

Q: And the “IC50 (neutralization, TZM-bl)” value [43]?
A: > 50 µg/mL

Q: And the “IC50 (neutralization, TZM-bl)” value [44]?
A: > 50 µg/mL

Q: What about the “IC50 (neutralization, TZM-bl)” value [45] of the same binder?
A: 0.001 µg/mL

Q: What about the “IC50 (neutralization, TZM-bl)” value [46] of the same binder?
A: 0.015 µg/mL

Q: And the “IC50 (neutralization, TZM-bl)” value [47]?
A: 0.004 µg/mL

Q: What about the “IC50 (neutralization, TZM-bl)” value [48] of the same binder?
A: < 0.0006 µg/mL

Source: patent US20200199204A1 (UNITED STATES OF AMERICA AS REPRESENTED BY THE SECRETARY …, published 2020)
